Drawing on patent US20240239878A1, this text covers Top MFI for one substance.

In assay [1] the target is human DLL3 on SHP-77 cells (human) (UniProt Q9NYJ7). Briefly: flow cytometry, SHP-77 cells.
Assay [2] has as its target Cynomolgus monkey DLL3 on HEK293 cells (HEK293-cyno DLL3) (Cynomolgus monkey). The experiment in a line: flow cytometry, HEK293-cyno DLL3 cells.

Chain of human DLL3 on SHP-77 cells (human) (Q9NYJ7 27-618): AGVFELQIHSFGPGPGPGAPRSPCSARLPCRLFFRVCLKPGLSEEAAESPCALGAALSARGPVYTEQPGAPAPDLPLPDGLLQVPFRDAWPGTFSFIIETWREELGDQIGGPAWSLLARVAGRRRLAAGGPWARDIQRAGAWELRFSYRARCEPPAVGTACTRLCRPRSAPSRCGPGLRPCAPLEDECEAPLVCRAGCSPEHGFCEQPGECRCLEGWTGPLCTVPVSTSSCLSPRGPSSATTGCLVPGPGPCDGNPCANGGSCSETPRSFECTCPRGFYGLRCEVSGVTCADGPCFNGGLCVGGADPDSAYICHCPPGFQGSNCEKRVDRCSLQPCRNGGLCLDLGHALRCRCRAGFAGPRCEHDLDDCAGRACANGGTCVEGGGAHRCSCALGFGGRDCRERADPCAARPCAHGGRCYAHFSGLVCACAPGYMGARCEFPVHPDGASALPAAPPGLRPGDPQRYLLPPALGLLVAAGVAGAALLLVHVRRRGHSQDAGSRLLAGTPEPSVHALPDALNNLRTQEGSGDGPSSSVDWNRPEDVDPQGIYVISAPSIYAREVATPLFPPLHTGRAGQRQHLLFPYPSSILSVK
Chain of Cynomolgus monkey DLL3 on HEK293 cells (HEK293-cyno DLL3) (Cynomolgus monkey) (Q9NYJ7 other isoform, or with tags, fused parts or gaps): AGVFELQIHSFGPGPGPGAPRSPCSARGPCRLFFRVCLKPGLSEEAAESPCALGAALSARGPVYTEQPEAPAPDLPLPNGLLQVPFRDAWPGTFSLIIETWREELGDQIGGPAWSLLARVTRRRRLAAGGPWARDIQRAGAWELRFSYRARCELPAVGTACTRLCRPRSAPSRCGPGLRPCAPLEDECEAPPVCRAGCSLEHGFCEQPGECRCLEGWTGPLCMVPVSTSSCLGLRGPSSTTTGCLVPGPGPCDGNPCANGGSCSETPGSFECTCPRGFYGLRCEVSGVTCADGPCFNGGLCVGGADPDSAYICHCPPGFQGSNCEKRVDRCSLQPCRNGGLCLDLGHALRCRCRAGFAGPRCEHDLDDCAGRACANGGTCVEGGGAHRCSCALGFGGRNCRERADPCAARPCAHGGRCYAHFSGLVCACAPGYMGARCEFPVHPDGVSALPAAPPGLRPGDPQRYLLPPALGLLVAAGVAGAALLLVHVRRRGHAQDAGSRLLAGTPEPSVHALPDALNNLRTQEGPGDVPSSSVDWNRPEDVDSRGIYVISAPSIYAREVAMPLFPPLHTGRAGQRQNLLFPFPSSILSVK

Regarding Negative control antibody, the results for the Top MFI in assay [1] and in assay [2] were 92 MFI and 104 MFI, respectively.
